Reference: patent publication US20260183373

B1: angiotensin-converting enzyme (ACE) (protein)
chain: LDPGLQPGNFSADEAGAQLFAQSYNSSAEQVLFQSVAASWAHDTNITAENARRQEEAALLSQEFAEAWGQKAKELYEPIWQNFTDPQLRRIIGAVRTLGSANLPLAKRQQYNALLSNMSRIYSTAKVCLPNKTATCWSLDPDLTNILASSRSYAMLLFAWEGWHNAAGIPLKPLYEDFTALSNEAYKQDGFTDTGAYWRSWYNSPTFEDDLEHLYQQLEPLYLNLHAFVRRALHRRYGDRYINLRGPIPAHLLGDMWAQSWENIYDMVVPFPDKPNLDVTSTMLQQGWNATHMFRVAEEFFTSLELSPMPPEFWEGSMLEKPADGREVVCHASAWDFYNRKDFRIKQCTRVTMDQLSTVHHEMGHIQYYLQYKDLPVSLRRGANPGFHEAIGDVLALSVSTPEHLHKIGLLDRVTNDTESDINYLLKMALEKIAFLPFGYLVDQWRWGVFSGRTPPSRYNFDWWYLRTKYQGICPPVTRNETHFDAGAKFHVPNVTPYIRYFVSFVLQFQFHEALCKEAGYEGPLHQCDIYRSTKAGAKLRKVLQAGSSRPWQEVLKDMVGLDALDAQPLLKYFQPVTQWLQEQNQQNGEVLGWPEYQWHPPLPDNYPEGIDLVTDEAEASKFVEEYDRTSQVVWNEYAEANWNYNTNITTETSKILLQKNMQIANHTLKYGTQARKFDVNQLQNTTIKRIIKKVQDLERAALPAQELEEYNKILLDMETTYSVATVCHPNGSCLQLEPDLTNVMATSRKYEDLLWAWEGWRDKAGRAILQFYPKYVELINQAARLNGYVDAGDSWRSMYETPSLEQDLERLFQELQPLYLNLHAYVRRALHRHYGAQHINLEGPIPAHLLGNMWAQTWSNIYDLVVPFPSAPSMDTTEAMLKQGWTPRRMFKEADDFFTSLGLLPVPPEFWNKSMLEKPTDGREVVCHASAWDFYNGKDFRIKQCTTVNLEDLVVAHHEMGHIQYFMQYKDLPVALREGANPGFHEAIGDVLALSVSTPKHLHSLNLLSSEGGSDEHDINFLMKMALDKIAFIPFSYLVDQWRWRVFDGSITKENYNQEWWSLRLKYQGLCPPVPRTQGDFDPGAKFHIPSSVPYIRYFVSFIIQFQFHEALCQAAGHTGPLHKCDIYQSKEAGQRLATAMKLGFSRPWPEAMQLITGQPNMSASAMLSYFKPLLDWLRTENELHGEKLGWPQYNWTPNSARSEGPLPDSGRVSFLGLDLDAQQARVGQWL
B2: endothelin-converting enzyme 2 (ECE2) (protein)
chain: GVQYHRDPSHSTCLTEACIRVAGKILESLDRGVSPCEDFYQFSCGGWIRRNPLPDGRSRWNTFNSLWDQNQAILKHLLENTTFNSSSEAEQKTQRFYLSCLQVERIEELGAQPLRDLIEKIGGWNITGPWDQDNFMEVLKAVAGTYRATPFFTVYISADSKSSNSNVIQVDQSGLFLPSRDYYLNRTANEKVLTAYLDYMEELGMLLGGRPTSTREQMQQVLELEIQLANITVPQDQRRDEEKIYHKMSISELQALAPSMDWLEFLSFLLSPLELSDSEPVVVYGMDYLQQVSELINRTEPSILNNYLIWNLVQKTTSSLDRRFESAQEKLLETLYGTKKSCVPRWQTCISNTDDALGFALGSLFVKATFDRQSKEIAEGMISEIRTAFEEALGQLVWMDEKTRQAAKEKADAIYDMIGFPDFILEPKELDDVYDGYEISEDSFFQNMLNLYNFSAKVMADQLRKPPSRDQWSMTPQTVNAYYLPTKNEIVFPAGILQAPFYARNHPKALNFGGIGVVMGHELTHAFDDQGREYDKEGNLRPWWQNESLAAFRNHTACMEEQYNQYQVNGERLNGRQTLGENIADNGGLKAAYNAYKAWLRKHGEEQQLPAVGLTNHQLFFVGFAQVWCSVRTPESSHEGLVTDPHSPARFRVLGTLSNSRDFLRHFGCPVGSPMNPGQLCEVW

Protein	Aβ cleavage (ELISA-based assay of intact Aβ) (Aβ(1-40), P05067)	Aβ cleavage (ELISA-based assay of intact Aβ) (Aβ(1-42), P05067)
B1	ECE2 and ACE were completely inactive on both Aβ isoforms	ECE2 and ACE were completely inactive on both Aβ isoforms
B2	ECE2 and ACE were completely inactive on both Aβ isoforms	ECE2 and ACE were completely inactive on both Aβ isoforms
